Where only a bound is given, the exact number is not on record here.

This note sets out measurements from doi:10.1101/2022.10.27.514150.

The target of this experiment is Gluc1-E2F4 (human), Q16254. Briefly: split reporter. Particulars: remark: other sources report otherwise.
Gluc1-E2F4 (human), Q16254, sequence (Q16254 whole entry): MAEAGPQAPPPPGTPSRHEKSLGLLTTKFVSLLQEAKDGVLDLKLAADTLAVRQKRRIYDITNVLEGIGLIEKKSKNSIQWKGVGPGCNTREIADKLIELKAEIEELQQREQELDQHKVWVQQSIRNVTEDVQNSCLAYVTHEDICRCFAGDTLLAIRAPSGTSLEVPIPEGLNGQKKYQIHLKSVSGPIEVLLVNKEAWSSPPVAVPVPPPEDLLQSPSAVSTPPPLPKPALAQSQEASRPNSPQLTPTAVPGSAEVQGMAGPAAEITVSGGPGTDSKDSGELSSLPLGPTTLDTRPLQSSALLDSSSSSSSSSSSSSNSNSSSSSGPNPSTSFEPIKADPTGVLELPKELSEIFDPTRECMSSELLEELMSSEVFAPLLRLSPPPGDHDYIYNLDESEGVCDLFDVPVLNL

B1: Gluc2-p130, Q08999 1-1139 (natural protein)
chain: MPSGGDQSPPPPPPPPAAAASDEEEEDDGEAEDAAPPAESPTPQIQQRFDELCSRLNMDEAARAEAWDSYRSMSESYTLEGNDLHWLACALYVACRKSVPTVSKGTVEGNYVSLTRILKCSEQSLIEFFNKMKKWEDMANLPPHFRERTERLERNFTVSAVIFKKYEPIFQDIFKYPQEEQPRQQRGRKQRRQPCTVSEIFHFCWVLFIYAKGNFPMISDDLVNSYHLLLCALDLVYGNALQCSNRKELVNPNFKGLSEDFHAKDSKPSSDPPCIIEKLCSLHDGLVLEAKGIKEHFWKPYIRKLYEKKLLKGKEENLTGFLEPGNFGESFKAINKAYEEYVLSVGNLDERIFLGEDAEEEIGTLSRCLNAGSGTETAERVQMKNILQQHFDKSKALRISTPLTGVRYIKENSPCVTPVSTATHSLSRLHTMLTGLRNAPSEKLEQILRTCSRDPTQAIANRLKEMFEIYSQHFQPDEDFSNCAKEIASKHFRFAEMLYYKVLESVIEQEQKRLGDMDLSGILEQDAFHRSLLACCLEVVTFSYKPPGNFPFITEIFDVPLYHFYKVIEVFIRAEDGLCREVVKHLNQIEEQILDHLAWKPESPLWEKIRDNENRVPTCEEVMPPQNLERADEICIAGSPLTPRRVTEVRADTGGLGRSITSPTTLYDRYSSPPASTTRRRLFVENDSPSDGGTPGRMPPQPLVNAVPVQNVSGETVSVTPVPGQTLVTMATATVTANNGQTVTIPVQGIANENGGITFFPVQVNVGGQAQAVTGSIQPLSAQALAGSLSSQQVTGTTLQVPGQVAIQQISPGGQQQKQGQSVTSSSNRPRKTSSLSLFFRKVYHLAAVRLRDLCAKLDISDELRKKIWTCFEFSIIQCPELMMDRHLDQLLMCAIYVMAKVTKEDKSFQNIMRCYRTQPQARSQVYRSVLIKGKRKRRNSGSSDSRSHQNSPTELNKDRTSRDSSPVMRSSSTLPVPQPSSAPPTPTRLTGANSDMEEEERGDLIQFYNNIYIKQIKTFAMKYSQANMDAPPLSPYPFVRTGSPRRIQLSQNHPVYISPHKNETMLSPREKIFYYFSNSPSKRLREINSMIRTGETPTKKRGILLEDGSESPAKRICPENHSALLRRLQDVANDRGSH
Regarding B1, the normalized luminescence ratio (NLR) is more than 40.
